The text below walks through data of US20100075326A1 (CORNELL UNIVERSITY, published 2010).

Assay [1] concerns the target T1, Botulinum neurotoxin serotype A light chain protease (BoNT/A-LC), YS2H bait fused to Aga2 with C-terminal … (yeast, UniProt P0DPI0 1-448).
T1 construct: range 1-448
Nature of the assay: predicted from YS2H (flow cytometry of Myc and FLAG tags, Langmuir equation).

In assay [2] the target is T2, Botulinum neurotoxin serotype A light chain protease (BoNT/A-LC), soluble, hexahistidine tags at both termini (UniProt P0DPI0 1-448).
T2 construct: range 1-448
Nature of the assay: SPR (Biacore), A-LC injected over B8-coated chip. For orientation: SPR reads the build-up and loss of mass on a sensor chip optically.

Assay [3] concerns the target T2, Botulinum neurotoxin serotype A light …. Kind of assay: SPR (Biacore), A-LC injected over B8-coated chip. This is another data set of the same source.
The target is the same in assay [4]. Nature of the assay: SPR (Biacore), G6 compared with B8 on A-LC.
The target is the same in assay [5]. Kind of assay: SPR (Biacore), A-LC injected over G6-coated chip.
Assay [6] shares this target. Kind of assay: SPR (Biacore), A-LC injected over G6-coated chip. This is another data set of the same source.

B1: VHH-B8, secreted YS2H prey with C-terminal Myc tag (VHH)
VHH: HVQLQQSGGGLVQPGGSLRLSCAASGSIFSIYAMGWYRQAPGKQRELVAAISSYGSTNYADSVKGRFTISRDNAKNTVYLQMNSLKPEDTAVYYCNADIATMTAVGGFDYWGQGTQVTVSS
By Kd is commonly meant the free concentration of one partner at which half of the binding sites on the other are occupied at equilibrium, for simple one-to-one binding. Regarding B1, the dissociation constant (Kd) in assay [1] was 38.2 nM.

B2: VHH-B8, soluble, from E. coli (pET20b) (VHH)
VHH: HVQLQQSGGGLVQPGGSLRLSCAASGSIFSIYAMGWYRQAPGKQRELVAAISSYGSTNYADSVKGRFTISRDNAKNTVYLQMNSLKPEDTAVYYCNADIATMTAVGGFDYWGQGTQVTVSS
As a reminder, the koff is the rate constant with which the complex falls apart. One may read the kon as the rate constant with which the complex forms. The low end stands for slow association, the high end for fast association. For the molecule B2, in assay [2], the koff turned out to be 0.000518 s⁻¹ and the kon is 226000 M⁻¹ s⁻¹. The equilibrium dissociation constant (Kd) in assay [3] was determined as 2.3 nM.

B3: VHH-G6, secreted YS2H prey with C-terminal Myc tag (VHH)
VHH: HVQLQQSGGGLVQPGGSLRLSCAASGFTLDYYAIGWFRQAPGKEREGVSCISSSGGSTYYADSVKGRFTISRDNAKNTVYLQMNSLKPEDTAVYYCAVAQSCLRGGVRGGYWGQGTQVTVSS
As for B3, the Kd in assay [1] is 143 nM.

B4: VHH-G6, soluble, from E. coli (pET20b) (VHH)
VHH: HVQLQQSGGGLVQPGGSLRLSCAASGFTLDYYAIGWFRQAPGKEREGVSCISSSGGSTYYADSVKGRFTISRDNAKNTVYLQMNSLKPEDTAVYYCAVAQSCLRGGVRGGYWGQGTQVTVSS
As to B4, in assay [4], the “fold difference in affinity against B8” value is 100 fold, the “fold difference in association rate against B8” value was found to be 3 fold and the “fold difference in dissociation rate against B8” value was determined as 34 fold. In assay [5], this molecule had a koff of 0.0182 s⁻¹ and an on-rate constant (kon) of 76100 M⁻¹ s⁻¹. Also, in assay [6], the Kd was found to be 230 nM.
